In EP4552657A1, “RADIOPHARMACEUTICAL COMPLEXES AND COMBINATIONS” (priority 2023, dated 2025):

Assays:
[1] = biological target: GUCY2C (Homo sapiens, UniProt P25092); assay: Immunoreactive fraction (IRF), binding to GUCY2C-coated beads
Description: Shortly after completion of the radiolabeling, the binding was assessed by measuring the fraction of radiolabeled antibody-chelator conjugate bound to relevant antigen coated magnetic beads (Thermo Fisher Scientific). In short, beads were placed in 2 mL Eppendorf tubes in 90 µL buffer (PBS/0.1% Tween 20/1% BSA). The radiolabeled compounds were diluted to 5 Bq/µL in buffer and 50 Bq were added to each bead-containing tube. The binding lasted for 60 min while shaking at 750 rpm at room temperature. After completion of the binding step, magnet (DynaMag-2) was used to separate the beads from […] supernatant. The radio activities in the supernatant and in the beads of each sample were measured using a high purity Germanium detector (Ortec). […] Total binding was defined as [(activity in beads […])/ (total activity)] × 100.
After completion of the radiolabeling, the binding Ac225-macropa-Indusatumab to GUCY2C-coated M270-carboxy Dynabeads was determined by IRF (as describe above).

[2] = system: CHO cells stably expressing GUCY2C; conditions: 20 kBq/µg; 6 days; vs isotype control
Description: In vitro cytotoxicity of Ac-225-ACC was determined in cell lines expressing different levels of relevant target receptors. Cells were seeded at an appropriate cell density in relevant cell media. One day after seeding, the radiolabeled compounds at the specific activity of 2-20 kBq/µg and radioactive concentration of 50-100 kBq/ml were titrated in parallel with a radiolabeled isotype control. Cells were incubated for 5-6 days. Cell viability was determined by cell counting using Hoechst and PI staining and analyzed on Operetta CLS High Content Analysis System (Perkin Elmer) or by ATP measurements using CellTiterGlo (Promega).
The cells were seeded at an appropriate cell density in MEM Alpha + 10% FBS + 1x Glutamax + 0.5 mg/ml G418. […] Cells were treated for 6 days and subsequentially cell viability was determined using CellTiterGlo (Promega).

[3] = biological target: T1, human c-Met (Homo sapiens, UniProt P08581); assay: Flow cytometry, cell surface binding on MKN-45 and HT-55 cells; conditions: compared to unconjugated Telisotuzumab
T1 construct: MKN-45 and HT-55 cells expressing human c-Met; endogenous in cells; host or cells: MKN-45, HT-55
Description: The in vitro binding properties of antibody-chelator conjugates were assessed in various relevant cell lines and compared to their corresponding unconjugated antibody. Briefly, samples were diluted in buffer (PBS/3% FBS) and added to relevant cell lines. After completion of the binding step (60 min at 4°C), the cells were washed and incubated with secondary antibody conjugated with phycoerythrin to detect antibodies containing a human IgG Fc region. After 60 min at 4°C, the cells were washed, and fluorescence on the cells was determined by flow cytometry using Guava EasyCyte 8HT (Luminex).
Cell surface binding of Telisotuzumab-macropa was compared to unconjugated Telisotuzumab and investigated by flow cytometry using MKN-45 and HT-55 cells expressing human c-Met (Figure 37).

T1 sequence (P08581 25-1390): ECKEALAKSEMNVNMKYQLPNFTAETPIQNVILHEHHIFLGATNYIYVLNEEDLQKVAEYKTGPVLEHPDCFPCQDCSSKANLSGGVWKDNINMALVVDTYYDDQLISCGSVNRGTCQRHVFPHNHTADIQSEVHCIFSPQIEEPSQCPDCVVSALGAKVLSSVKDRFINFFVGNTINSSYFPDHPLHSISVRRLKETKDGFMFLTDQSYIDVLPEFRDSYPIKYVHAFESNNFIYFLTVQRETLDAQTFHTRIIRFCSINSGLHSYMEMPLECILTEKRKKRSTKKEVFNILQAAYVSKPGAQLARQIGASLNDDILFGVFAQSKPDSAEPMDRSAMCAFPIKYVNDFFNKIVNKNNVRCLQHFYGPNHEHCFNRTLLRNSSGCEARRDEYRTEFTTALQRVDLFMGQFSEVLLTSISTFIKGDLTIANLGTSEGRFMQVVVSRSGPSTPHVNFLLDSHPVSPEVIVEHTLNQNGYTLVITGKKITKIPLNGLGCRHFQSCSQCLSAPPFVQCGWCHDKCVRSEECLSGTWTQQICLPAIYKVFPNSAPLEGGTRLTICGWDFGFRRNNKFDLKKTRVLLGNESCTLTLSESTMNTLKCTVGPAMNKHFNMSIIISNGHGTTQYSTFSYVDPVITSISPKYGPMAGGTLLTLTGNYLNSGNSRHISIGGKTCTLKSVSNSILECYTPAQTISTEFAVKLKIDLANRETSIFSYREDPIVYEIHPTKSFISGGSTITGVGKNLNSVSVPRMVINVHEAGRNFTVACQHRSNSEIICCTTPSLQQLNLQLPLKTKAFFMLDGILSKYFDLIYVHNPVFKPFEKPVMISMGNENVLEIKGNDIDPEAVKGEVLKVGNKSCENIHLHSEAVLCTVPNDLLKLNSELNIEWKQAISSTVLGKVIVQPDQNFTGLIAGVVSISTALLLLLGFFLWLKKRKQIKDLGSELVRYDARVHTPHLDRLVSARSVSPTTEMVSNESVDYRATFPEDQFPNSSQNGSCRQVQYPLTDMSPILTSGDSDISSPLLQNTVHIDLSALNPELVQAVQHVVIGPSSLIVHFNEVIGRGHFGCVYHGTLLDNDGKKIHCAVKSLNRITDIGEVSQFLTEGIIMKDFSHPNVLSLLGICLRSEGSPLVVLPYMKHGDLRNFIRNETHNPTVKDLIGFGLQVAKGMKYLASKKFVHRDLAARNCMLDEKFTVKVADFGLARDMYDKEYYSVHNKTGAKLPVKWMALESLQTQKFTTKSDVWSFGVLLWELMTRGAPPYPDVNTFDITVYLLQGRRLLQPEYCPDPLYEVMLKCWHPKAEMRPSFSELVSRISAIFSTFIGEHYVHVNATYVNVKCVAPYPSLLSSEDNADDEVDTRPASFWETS

Substance | amount of GUCY2C-coated beads at which maximal binding was achieved [1] [µg] | cytotoxicity [2] | EC50 [3]
Ac-225-macropa-Indusatumab: Ac-225 macropa complex bound to the anti-GUCY2C monoclonal antibody Indusatumab | 7.5 | strong and specific cytotoxicity | 
Telisotuzumab-macropa |  |  | comparable EC50 in both cell lines as unconjugated Telisotuzumab
